Blank lines part the entries; values can stand above or below the binder they belong to.
Molecular target: T1, N-terminal effector PYRIN domain of NLRP12 (residues 1-98) (human, UniProt P59046 1-98)
T1 sequence: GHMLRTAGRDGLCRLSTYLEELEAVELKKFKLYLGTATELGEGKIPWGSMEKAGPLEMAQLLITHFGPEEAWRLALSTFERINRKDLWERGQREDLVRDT
Experiment: NMR titration

- Kd: ≥ 150 µM
B1: FAF-1 UBA domain (residues 1-57) (domain or fragment, UniProt Q9UNN5 1-57, looked up)
chain: MASNMDREMILADFQACTGIENIDEAITLLEQNNWDLVAAINGVIPQENGILQSEYG

- Kd: ≥ 50 µM
B2: FAF-1 UBA domain and linker region (residues 1-99) (domain or fragment, UniProt Q9UNN5 1-99, looked up)
chain: MASNMDREMILADFQACTGIENIDEAITLLEQNNWDLVAAINGVIPQENGILQSEYGGETIPGPAFNPASHPASAPTSSSSSAFRPVMPSRQIVERQPR
